Data published in patent publication US20230151082A1.

How the values were obtained:
[1] = molecular target: mesothelin present on the cell membrane of mesothelin-expressing cancer cell lines (AsPC-1; OVCAR-3; NCI-H2052) (human) (UniProt Q13421); assay: flow cytometry, phage clone on AsPC-1 cells against control K562 cells
[2] = molecular target: mesothelin present on the cell membrane of mesothelin-expressing cancer cell lines (AsPC-1; OVCAR-3; NCI-H2052) (human) (UniProt Q13421); assay: flow cytometry, phage clone on AsPC-1 cells, anti-M13-FITC
[3] = molecular target: human mesothelin protein (MSLN, Acro Biosystems), conjugated to a histidine tag (human) (UniProt Q13421); assay: ELISA, purified scFv on coated human mesothelin protein (1 ug/mL), anti-StrepMAB HRP

| Binder | relative peak shift value [1] [%] | relative peak shift value [2] [%] | EC50 [3] [nM] |
| --- | --- | --- | --- |
| MSLN37 phage clone (scFv displayed on phage, KBIO human synthetic scFv phage display library KscFv-I) (scFv, V domains shown) VH: EVQLVESGGGLVQPGGSLRLSCAASGFTFSSYAMHWVRQAPGKGLEWVSGISGSGGTTYYADSVKGRFTISRDNSKNTLYLQMNSLRAEDTAVYYCAKEVEGQSQEYFDIWGQGTLVTVSS VL: DIQMTQSPSSLSASVGDRVTITCRASQSIANYLNWYQQKPGKAPKLLIYAASNLQSGVPSRFSGSGSGTDFTLTISSLQPEDFATYYCQQSYSFPYTFGQGTKVEIK | 5.9 | > 5 | – |
| MSLN34 phage clone (scFv displayed on phage, KBIO human synthetic scFv phage display library KscFv-I) (scFv, not shown: large carriers; small tags and cut ends, displayed on M13 phage) scFv: EVQLVESGGGLVQPGGSLRLSCAASGFTFSDYGMHWVRQAPGKGLEWVSSIYGSGGHTGYADSVKGRFTISRDNSKNTLYLQMNSLRAEDTAVYYCAKQHAYRYSYAFDVWGQGTLVTVSSGGGGSGGGGSGGGGSDIQMTQSPSSLSASVGDRVTITCRASQSISNWLNWYQQKPGKAPKLLIYATSSLQSGVPSRFSGSGSGTDFTLTISSLQPEDFATYYCQQSYSFPFTFGQGTKVEIK | 16.2 | > 5 | – |
| anti-MSLN-scFv antibody MSLN34 (purified scFv from E. coli periplasm) (scFv, not shown: small tags and cut ends) scFv: EVQLVESGGGLVQPGGSLRLSCAASGFTFSDYGMHWVRQAPGKGLEWVSSIYGSGGHTGYADSVKGRFTISRDNSKNTLYLQMNSLRAEDTAVYYCAKQHAYRYSYAFDVWGQGTLVTVSSGGGGSGGGGSGGGGSDIQMTQSPSSLSASVGDRVTITCRASQSISNWLNWYQQKPGKAPKLLIYATSSLQSGVPSRFSGSGSGTDFTLTISSLQPEDFATYYCQQSYSFPFTFGQGTKVEIK | – | – | 83 |
